According to patent publication US20090048324A1 (FOX CHASE CANCER CENTER, published 2009):

What was measured:
[1] = biological target: the molecule itself; assay: cell-based or functional assay
[2] = biological target: T1, human PBGS variant F12L (human, UniProt P13716 1-330); assay: coexpression, Q-Sepharose chromatography
T1 construct: Hexamer in the crystal structure (PDB 1PV8); tetramer/hexamer mix in sedimentation equilibrium; also called F12L hexamer
T1 chain: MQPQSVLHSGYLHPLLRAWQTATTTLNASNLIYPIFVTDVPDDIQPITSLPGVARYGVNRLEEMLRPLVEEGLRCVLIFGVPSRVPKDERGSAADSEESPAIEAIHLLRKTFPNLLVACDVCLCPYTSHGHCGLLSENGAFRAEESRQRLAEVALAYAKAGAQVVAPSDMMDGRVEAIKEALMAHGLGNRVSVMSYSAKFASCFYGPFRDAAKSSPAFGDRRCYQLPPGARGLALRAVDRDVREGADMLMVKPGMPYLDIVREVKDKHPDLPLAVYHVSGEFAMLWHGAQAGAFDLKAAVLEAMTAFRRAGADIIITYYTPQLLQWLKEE

[3] = biological target: the molecule itself; assay: purification and dialysis against magnesium

B1: pea (Pisum sativum) porphobilinogen synthase (enzyme, Pisum sativum (pea), UniProt P30124 69-398, looked up)
chain: SLPIQRRPRRNRRSPALRSAFQETTLSPANFVYPLFIHEGEEDTPIGAMPGCYRLGWRHGLLEEVAKARDVGVNSVVLFPKIPDALKTPTGDEAYNEDGLVPRSIRLLKDKYPDLIIYTDVALDPYSSDGHDGIVREDGVIMNDETVHQLCKQAVAQARAGADVVSPSDMMDGRVGAMRVALDAEGFQHVSIMSYTAKYASSFYGPFREALDSNPRFGDKKTYQMNPANYREALTEMREDESEGADILLVKPGLPYLDIIRLLRDNSPLPIAAYQVSGEYSMIKAGGALKMIDEEKVMMESLLCLRRAGADIILTYFALQAARTLCGEKR
B1 was tested, and the “EC50 (read off the curve), specific activity against pea PBGS subunit concentration” value [1] was about 0.03 µM.

B2: wild type human porphobilinogen synthase (PBGS), parent construct N59/C162A (enzyme)
chain: MQPQSVLHSGYFHPLLRAWQTATTTLNASNLIYPIFVTDVPDDIQPITSLPGVARYGVNRLEEMLRPLVEEGLRCVLIFGVPSRVPKDERGSAADSEESPAIEAIHLLRKTFPNLLVACDVCLCPYTSHGHCGLLSENGAFRAEESRQRLAEVALAYAKAGAQVVAPSDMMDGRVEAIKEALMAHGLGNRVSVMSYSAKFASCFYGPFRDAAKSSPAFGDRRCYQLPPGARGLALRAVDRDVREGADMLMVKPGMPYLDIVREVKDKHPDLPLAVYHVSGEFAMLWHGAQAGAFDLKAAVLEAMTAFRRAGADIIITYYTPQLLQWLKEE
notes: Homo-oligomer, predominantly an octamer; also called Wt; WT
B2: binds [2].

B3: Pseudomonas aeruginosa porphobilinogen synthase (enzyme)
chain: MSFTPANRAYPYTRLRRNRRDDFSRRLVRENVLTVDDLILPVFVLDGVNQRESIPSMPGVERLSIDQLLIEAEEWVALGIPALALFPVTPVEKKSLDAAEAYNPEGIAQRATRALRERFPELGIITDVALDPFTTHGQDGILDDDGYVLNDVSIDVLVRQALSHAEAGAQVVAPSDMMDGRIGAIREALESAGHTNVRIMAYSAKYASAYYGPFRDAVGSASNLGKGNKATYQMDPANSDEALHEVAADLAEGADMVMVKPGMPYLDIVRRVKDEFRAPTFVYQVSGEYAMHMGAIQNGWLAESVILESLTAFKRAGADGILTYFAKQAAEQLRRGR
notes: Purified as a dimer without magnesium and converted to the octamer by dialysis against magnesium; also called P. aeruginosa PBGS
B3: binds [3].
